According to patent US20110230650A1 (NORTHWESTERN UNIVERSITY, published 2011):

Biological target: the molecule itself
Test: gel filtration (Superdex 200) of His-tagged LP4 purified without detergent; lipid nanodisc
From the text: In some embodiments, the presently disclosed compositions comprise a distinct form of polypeptides that are specifically engineered to spontaneously solubilize membrane proteins without a detergent intermediary (i.e., “LP” molecules). […] For example, in some embodiments the polypeptides comprise multiple repeats of an amphipathic helical fragment of ApoA1. […] The eluted protein was run on a gel filtration column (Superdex 200, FIG. 3, middle panel). […] The protein behaved as expected: it self-assembled as a dimer of appropriate size (as in FIG. 2) and solubilized a membrane fragment.

B1: histidine-tagged LP4 (designed binder)
chain: FQKKWQEEMELYRQKVEPLRAELQEGARQKLHELQEKLSPLGEEMRDRARAHVDAFQKKWQEEMELYRQKVEPLRAELQEGARQKLHELQEKLSPLGEEMRDRARAHVDAFQKKWQEEMELYRQKVEPLRAELQEGARQKLHELQEKLSPLGEEMRDRARAHVDAFQKKWQEEMELYRQKVEPLRAELQEGARQKLHELQEKLSPLGEEMRDRARAHVDA
notes: Histidine-tagged LP4 purified without detergent as an empty, lipid-filled nanodisc; not shown: histidine tag
- binding result: binds
